# In the RNAGym collection of RNA variant scans (doi:10.1073/pnas.2313332121):
# Variants at the floor of the assay were thinned out.
# B1: TPR 5TU (parent)
# chain: GGAUCUUCUCGAUCUAACAAAAAAGACAAAUCUGCCACAAAGCUUGAGAGCAUCUUCGGAUGCAGAGGCGGCAGCCUUCGGUGGCGCGAUAGCGCCAACGUUCUCAACUAUGACACGCAAAACGCGUGCUCCGUUGAAUGGAGUUUAUCAUG
# Variants of: B1
# Experiment: polymerase ribozyme fitness, log enrichment relative to wild type (log ratio); higher = more active; in vitro selection for triplet polymerase activity
# How it was run: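 For each subunit of a heterodimeric triplet polymerase ribozyme, a mutant library was built by PCR and transcribed, then taken through a single in vitro selection round in triplicate. Selection involved annealing to a biotinylated primer, the partner subunit and triplets, incubation frozen at −7 °C, gel excision of extended constructs, capture on streptavidin beads and RT-PCR. Genotypes were retained after Illumina sequencing of inputs and outputs only with ≥10 input reads and ≥1 read in each output. Fitness is defined as the logarithm of a genotype's enrichment relative to wild-type enrichment, using inverse-variance-weighted averages across replicates, with the logarithm taken to base 2.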
row,Variant,polymerase ribozyme fitness (log ratio)
1,GGAUCUUCUCGAUCUAACAAAAAAGACAAAUCUGCCACAAUGCUUGAGAGCAUCUUCGGAUGCAGAGCCGGCAGCCUUCGGUGGCGCGAUUGCGCCAACGUCCUCAACUAUGACACGCAAAACGCGUGCUCCGUUGAAUGGAGUUUAUCAUG [A41U G68C A91U U102C],≤ -4.2
2,GGAUCUUCUCGAUCUAACAAAAAAGACAAAUCUGCCACAAUGCUUGAGAGCAUCUUCGGAUGCAGAGGCGGCAACCUUCGGUGGCGCGAUAGCGCCAACGUUUUCAACUAUGAUACGCAAAACGCGUGCUCCGCUGAAUGGAGUUUAUCAUG [A41U G74A C103U C114U U134C],≤ -4.2
3,GGAUCUUCUCGAUCUAACAAAAAAGACAAAUCUGCCACAAUGCUUGAGAGCAUCUUCGGAUGCAGAGGCGGCAGCCUUCGGUGGCGCGAUAGAGCCAACGUUCUCAACUAUGACACGCAAAGCGCGUGCUCCGUUGAAUGGAGUUUAUCAUG [A41U C93A A122G],-4.19
4,GGAUCUUCUCGAUCUAACAAAAAAGACAAAUCUGCCACAAUGCUUGAGAGCAUCUUCGGAUGCAGAGGCGGCAGCCUUCGGUGGGGCGAUAGCGCCAACGUUCUCAACUAUGACACGCAAAACGCGUGCUCCGUUGAAUGGAGUUUAUCAUG [A41U C85G],-2.37
5,GGAUCUUCUCGAUCUAACAAAAAAGACAAAUCUGCCACAAUGCUUGAGACCAUCUUCGGAUGCAGAGGCGGCAGCUUUCGGUGGCGCGAUAGGGCCAACGUUCUCAACUAUGACACGCAAAACGCGUGCUCCGUUGAGUGGAGUUUAUCUUG [A41U G50C C76U C93G A138G A150U],≤ -4.2
6,GGAUCUUCUCGAUCUAACAAAAAAGACAAAUCUGCCACAAUGCUUGAGAGCAUCUUCGGAUGCAGAGGCGGCAGCCUUCGAUGCAGCGAUAGCGCUAACGUUCUCAACUAUGACACGCAAAACGCAUGCUCCGUUGAAUGGAGUUUAUCAUG [A41U G81A G84C C85A C96U G126A],≤ -4.2
7,GGAUCUUCUCGAUCUAACAAAAAAGACAAAUCUGCCACAAUGCUUGAGAGCAUCUUCGGAUGCAGAGGCGGCAGCCUUCGGUGGCGCGAUAGCGUCAAUGUUCUCAACUAUGACACGCAAAACGCGUGCUCCGUUGAAUGCAGUUUAUCAUG [A41U C95U C99U G141C],-2.51
8,GGAUCUUCUCGAUCUAACAAAAAAGACAAAUCUGCCACAAUGCUUGAGAGCAUCUUCGGAUGCAGAGGCGGCAGCCUUCGGUGGCGCGAUAGCGCCAACGUUGUCAACUAUGACACGCAAAACGCGUUCUCCGUUGAAUGGAGUUUAUCAUG [A41U C103G G128U],≤ -4.2
9,GGAUCUUCUCGAUCUAACAAAAAAGACAAAUCUGCCACAAUGCUUGAGAGCAUCUUCGGAUGCAGAGGCGGCAGCCUUCGGUAGCGCGAUAGCGCCAACGUUCUCAACUAUGACACGCAAAACGCGUGCUCCGUUGAAUGGAGUUUAUCAUG [A41U G83A],-0.754
10,GGAUCUUCUCGAUCUAACAAAAAAGACAAAUCUGCCACAAUGCUUGAGAGCAUCUUCGGAUGCAGAGGCGGCAGCCUUCGGUUGCGCGAUAGCGCCAACGUUCUCAACUAUGACACGCAAAACGCGUGCUCCGUUGAAUGGAGUUUAUCAUG [A41U G83U],-1.35
11,GGAUCUUCUCGAUCUAACAAAAAAGACAAAUCUGCCACAAUGCUUGAGAGCAUCUUCGGAUGCAGAGGCGGCAGCCUUCGGUUUCGCGAUAGCGCCAUCGUUCUCAACUAUGACACGCAUAACACGUGCUCCGUUGAAUGGAGUUUAUCAUG [A41U G83U G84U A98U A120U G124A],-3.95
12,GGAUCUUCUCGAUCUAACAAAAAAGACAAAUCUGCCACAAUGCUUGAGAGCAUCUUCGGAUGCAGAGGCGGCAACCUUCGGUGGCGCGAUAGCCCCAACGUUCUCAACUAUGACACGCAAAACGCGUGCUCCGUUGAAUGGAGUUUAUCAUG [A41U G74A G94C],≤ -4.2
13,GGAUCUUCUCGAUCUAACAAAAAAGACAAAUCUGCCACAAUGCUUGAGAGCAUCUUCGGAUGCAGAGGCGGCAGCAUUCGGUGGCGCGAUAGCGCCAACGUUCUCAACUAUGACACGCAAAACGCGUGCUCCGUUGAAUGGAGUUUAUCAUG [A41U C76A],-1.99
14,GGAUCUUCUCGAUCUAACAAAAAAGACAAAUCUGCCACAAUGCUUGAGAGCAUCUUCAGAUGCAGAGGCGGCAUCCUUCGGUGGCGCGAUAGCGCCAACGUUCUCAAAUAUGACACGCAGAACGCGUGCUCCGUUGAAUGAAGUUUAUCAUG [A41U G58A G74U C108A A120G G141A],≤ -4.2
15,GGAUCUUCUCGAUCUAACAAAAAAGACAAAUCUGCCACAAUGCUUGAGAGCAUCUUCGGAUGCAGAGGCGGCAGACUUCGGUGGCGCGAUAGUGCCAACGUUCUCAACUAUGACACGCAAAACGCGUGCUCCGUUGAAUGGAGUUUAUCAUG [A41U C75A C93U],≤ -4.2
16,GGAUCUUCUCGAUCUAACAAAAAAGACAAAUCUGCCACAAUGCUUGAGAGCAUCUUCGGAUGCAGAGGCGGCAGCCUUCGGUCGCGCGAUAGCGCCAACGUUCUCAACUGUGACACGCAAAACGCAUGCUCCGUUGAAUGGAGUUUAUCAUG [A41U G83C A110G G126A],≤ -4.2
17,GGAUCUUCUCGAUCUAACAAAAAAGACAAAUCUGCCACAAUGCUUGAGAGCAUCUUCGGAUGCAGAGGCGGGAGCCUUCGGUGGCGCGAGAGCGCCAAGGUUCUCAACUAUUACACGUAAAACGCGUGCUCCGUUGAAUGGAGUUUAUCAUG [A41U C72G U90G C99G G112U C118U],≤ -4.2
18,GGAUCUUCUCGAUCUAACAAAAAAGACAAAUCUGCCACAAUGCUUGAGAGCAUCUUCGGAUGCAGAGGCGGCAGCCUUCGGUGGCGCGAUAGCGCCAACGUUCUCAACUAUGACACGCAAAACUCGUGCUCCGUUGAAUGGAGUUUAUCAUG [A41U G124U],-0.896
19,GGAUCUUCUCGAUCUAACAAAAAAGACAAAUCUGCCACAAUGCUUGAGAGCAUCUUCGGAUGCAGAGGCGGCAGCCUUCGGUGGCGCGAUAGCGCCAACGUUCUCAACUAUGACACGCAAAACACGUGCUCCGUUGAAUGGAGUUUAUCAUG [A41U G124A],-1.29
